The record followed here is PMC5034880.

This data set concerns the target T1, PGL-3 (1-633)-6xHis-mEGFP (ΔRGG) (Caenorhabditis elegans, UniProt G5EBV6 1-633).
T1 sequence: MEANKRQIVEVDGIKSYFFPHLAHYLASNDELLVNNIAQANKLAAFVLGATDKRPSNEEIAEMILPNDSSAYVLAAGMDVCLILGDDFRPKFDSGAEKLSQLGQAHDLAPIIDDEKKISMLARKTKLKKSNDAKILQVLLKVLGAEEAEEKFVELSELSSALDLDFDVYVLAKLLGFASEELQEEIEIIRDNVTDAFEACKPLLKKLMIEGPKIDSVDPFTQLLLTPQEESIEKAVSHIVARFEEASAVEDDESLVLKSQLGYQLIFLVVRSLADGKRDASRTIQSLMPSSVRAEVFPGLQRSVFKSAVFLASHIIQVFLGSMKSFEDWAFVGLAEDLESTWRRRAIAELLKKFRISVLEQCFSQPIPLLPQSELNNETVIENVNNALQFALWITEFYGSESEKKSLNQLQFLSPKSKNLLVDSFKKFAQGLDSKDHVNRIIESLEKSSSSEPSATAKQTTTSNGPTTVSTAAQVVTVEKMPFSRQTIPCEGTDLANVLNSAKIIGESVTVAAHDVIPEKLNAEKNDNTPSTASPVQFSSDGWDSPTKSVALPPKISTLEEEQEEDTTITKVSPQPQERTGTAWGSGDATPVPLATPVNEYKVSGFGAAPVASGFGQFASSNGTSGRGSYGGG
Description: filter binding.

B1: (GUU)10A10 RNA (ssRNA)
RNA: GUUGUUGUUGUUGUUGUUGUUGUUGUUGUUAAAAAAAAAA
In the case of B1, the binding signal was > 60 fold weaker than full-length PGL-3.
